# B1: streptavidin mutein M4 (T76R, V125R, V55T, L109T), secreted by B. subtilis (other)
# chain: DPSKDSKAQVSAAEAGITGTWYNQLGSTFIVTAGADGALTGTYESAVGNAESRYTLTGRYDSAPATDGSGTALGWRVAWKNNYRNAHSATTWSGQYVGGAEARINTQWTLTSGTTEANAWKSTLRGHDTFTKVKPSAASIDAAKKAGVNNGNPLDAVQQ
# notes: Monomeric in solution; also called M4 mutein
# Columns and labels:
# [1] = biological target: the molecule itself; experiment: SDS-PAGE/Western blot of non-boiled culture supernatant, 20 uM biotin in medium; self-association of subunits
# Protocol: FIG. 3: Western blot analysis of cell culture supernatants from B. subtilis strains producing streptavidin muteins carrying a single mutation. 15 μl of non-boiled sample of culture supernatant was loaded to each lane. Samples on the left set were collected from B. subtilis strains cultured in super-rich medium without additional supplement of biotin. Samples on the right set were collected from B. subtilis strains cultured in super-rich medium with additional supplementation of biotin (20 μM). The blot was probed with polyclonal antibodies against streptavidin and developed using 4-chloro-1-napthol (Bio-Rad) as the colour development agent. […] M, molecular weight markers; wt, wild type streptavidin.
# FIG. 4: Analysis of culture supernatants from B. subtilis strains producing streptavidin muteins carrying different combinations of mutations. All these strains were cultivated in super-rich medium supplemented with biotin (20 μM). The 15 μl of non-boiled samples of culture supernatants were loaded. FIG. 4A. Coomassie blue stained SDS-polyacrylamide gel. Bands corresponding to tetrameric and monomeric streptavidin are marked by an asterisk and an arrowhead, respectively. FIG. 4B. Western blot probed with polyclonal antibodies against streptavidin. […]
# [2] = biological target: T1, biotin-conjugated bovine serum albumin (bovine, UniProt P02769 25-607); experiment: SPR (BIAcoreX), biotin-conjugated BSA immobilised on CM5 chip, mutein in solution; Kd = kd/ka
# T1 construct: Immobilised on a CM5 sensor chip; also called biotinylated bovine serum albumin (BSA)
# T1 sequence (P02769 25-607 limits assumed): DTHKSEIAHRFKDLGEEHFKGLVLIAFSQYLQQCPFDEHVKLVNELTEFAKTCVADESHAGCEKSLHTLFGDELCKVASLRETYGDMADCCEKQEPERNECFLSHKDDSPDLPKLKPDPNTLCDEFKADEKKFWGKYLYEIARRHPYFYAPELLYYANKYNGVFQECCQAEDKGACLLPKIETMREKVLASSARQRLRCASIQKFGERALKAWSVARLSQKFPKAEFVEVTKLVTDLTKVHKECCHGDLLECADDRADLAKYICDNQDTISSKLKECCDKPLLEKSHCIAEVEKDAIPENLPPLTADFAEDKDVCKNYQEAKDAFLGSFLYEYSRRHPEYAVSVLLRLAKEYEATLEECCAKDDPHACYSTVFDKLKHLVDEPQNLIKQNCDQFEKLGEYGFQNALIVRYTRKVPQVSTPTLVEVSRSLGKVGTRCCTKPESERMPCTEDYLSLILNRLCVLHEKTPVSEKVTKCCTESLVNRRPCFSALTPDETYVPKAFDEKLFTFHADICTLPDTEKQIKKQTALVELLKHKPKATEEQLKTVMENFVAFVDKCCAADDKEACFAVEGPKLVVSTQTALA
# Protocol: (§1) The kinetic parameters (both on- and off-rates for interaction with biotin) of streptavidin muteins were determined in real time using the surface plasmon resonance based BIAcoreX biosensor. Biotin-conjugated bovine serum albumin immobilized on CM5 sensor chip was used to study the reversibility of biotin binding (Qureshi, 2001).
# [3] = biological target: T1, biotin-conjugated bovine serum albumin; experiment: SPR (BIAcoreX), biotin-conjugated BSA immobilised on CM5 chip, mutein in solution
# Protocol: as §1
# [4] = biological target: the molecule itself; experiment: SDS-PAGE/Western blot of non-boiled culture supernatant; self-association of subunits
binder,measurement,setting,value
B1,"% tetramer, with additional biotin",[1],0%
same,Kd,[2],187 nM
same,koff,[3],0.00339 s⁻¹
same,kon,[3],18000 M⁻¹ s⁻¹
same,"% tetramer, no additional biotin",[4],0%

# Source: US20060246519A1 (UTI LIMITED PARTNERSHIP, published 2006)
